Where a SMILES comes first, the peptide text is derived from it. Bridges are numbered along the chain shown (N, C = ends).
Assays:
circular dichroism = conditions: water (methods paragraph says 0.1 M phosphate; tables say water); pH ns; 20 °C; 0.5 mM
[1] = Direct HA-binding ELISA of biotinylated peptides on HA coated plates (Example 4); set-up: key to HA binding: absorbance (color) read at 450 nm
Description: Each of these peptides was biotinylated at its amino-terminus, and an AEEA spacer was included to separate the peptide sequence from the biotin molecule.
HA coated plates were purchased (ECHELON). Peptides were dissolved in 2 mM PBS to constant molarity, aliquoted and stored at −20° C. until used in assays. 7 kDa biotin-labeled RHAMM (SEQ ID NO: 1) was synthesized and used as a positive control in these assays. Biotin labeled peptides were added to the HA coated wells (n=3 replicates/peptide) at either 0.8 or 0.08 μM and then incubated with shaking overnight at 4° C. Wells were washed free of excess unbound peptides using 200 μl PBS (4 times). 100 μl of Streptavidin-HRP was then added to each well and the plate was incubated at room temperature for 1 hr. The plate was then washed with 200 μl PBS/well 4 times and TMB Liquid Substrate System for ELISA (Sigma) was added to each well, incubated for 5-10 min at room temperature and color read at 450 nm Plate Reader (BioTek, SYNERGY H4, Hybrid Reader).
Direct HA-binding results for the biotinylated equivalents of compounds 132 and 150-161 are show in FIG. 39, and results for compounds 265-268 and 275-278 are shown in FIG. 40.

[2] = tested on: RHAMM-overexpressing (LR21) cells; assay: Cell migration assay (Boyden chamber, Chemicon ECM510); assay type: cell-based; conditions: % inhibition relative to positive control
Description: Compounds 132, 133, 150-152, 156-161, 265-269, 275, 277, and 278 were evaluated for their ability to inhibit cell migration. Cell migration assays were performed using Chemicon Assay Kits (ECM510 (Migration); Billerica, Mass., USA) according to the manufacturer's protocol. Briefly, sub-confluent cultures of RHAMM-overexpressing (LR21) cells were serum starved overnight. 7.5×10^4 cells were then plated in the upper chamber of a Boyden chamber. either in the presence or absence of 10 ng/mL of peptide. 30% fetal bovine serum in DMEM was used as the chemo-attractant in the lower chamber. The number of cells that had crossed the membrane after 20 hours was assessed using the CYQUANT GR Dye and lysis buffer solution provided in the kit. Fluorescence was measured with a fluorescent plate reader using a 480/520 nm filter set.
Values are the mean and SDM of n=3 replicates. *p<0.05, **p<0.01. All statistics compare to 30% serum control. In FIGS. 41-43, where bars are labeled with two compound numbers (“133/150” and “135/152”) this means that the data were pooled for the indicated compounds, i.e., for the non-acetylated and acetylated versions of the indicated peptides.

[3] = tested on: RHAMM-overexpressing (LR21) cells; assay: Cell invasion assay (Boyden chamber with MATRIGEL, Chemicon ECM555); assay type: cell-based; conditions: % inhibition relative to positive control; 10 ng/mL of peptide
Description: Compounds 132, 133, 135, 150-153, 156, 265-269, and 275-278 were evaluated for their ability to inhibit cellular invasion. Invasion assays were performed using Chemicon Assay Kits ECM555 (Invasion); Billerica, Mass., USA) according to the manufacturer's protocol. Invasion assays are performed in an identical manner as the migration assays described above in Example 5, except that cells are required to invade through a layer of extracellular matrix (MATRIGEL) coating the filter that separates the upper and lower Boyden chambers. Briefly, sub-confluent cultures of RHAMM-overexpressing (LR21) cells were serum starved overnight before plating 7.5×10^4 cells in the upper chamber of a Boyden chamber either in the presence or absence of 10 ng/mL of peptide. 30% fetal bovine serum in DMEM was used as the chemo-attractant in the lower chamber. The number of cells that had crossed the membrane after 20 hours was assessed using the CYQUANT® GR Dye and lysis buffer solution provided in the kit. Fluorescence was measured with a fluorescent plate reader using 480/520 nm filter set.
Values the mean and SDM of n=3 replicates. *p<0.05, **p<0.01, ***p<0.001 All statistics compared to 30% serum control. In FIG. 49, where bars are labeled with two compound numbers (“152/135”) this means that the data were pooled for the indicated compound, i.e., for the non-acetylated and acetylated versions of the indicated peptide.

[4] = Function blocking score: total percent inhibition over migration, invasion, inflammation and fibrosis assays divided by number of assays; assay type: cell-based; conditions: total percent inhibition for all assays tested divided by number of assays
Description: As documented in the Examples hereinabove, a variety of cyclized peptides were produced that contained the HA-binding domain 1 (HABD1), HA-binding domain 2 (HABD2), or both HABD1 and HABD2. These peptides were evaluated for helicity, direct HA binding and in a number of cell-based bioassays (effects on migration, invasion, NFkB activation, and TGFβ1 production) that are relevant to inflammation and fibrosis. The relationships amongst helicity, HA-binding, and biofunction were evaluated. Peptides were divided into three groups for this analysis: (1) peptides containing HABD1 (“HABD1”); (2) peptides containing HABD2 (“HABD2”); and peptides containing most or all of HABD1 and all of HABD2 (“HABD1+HABD2”). R^2 values were calculated to quantify the relationships between helicity, HA-binding, and biofunction were evaluated.
The results of this analysis for the HABD1 peptides are shown below in Tables 15 and 16. Table 16 provides a function blocking scores for each of the tested peptides and provides R^2 values showing the relationship between HA binding and helicity (“HA binding vs. CD”), HA binding and function-blocking score (“HA binding vs. FBS”) and helicity vs. function-blocking score (“CD vs. FBS”). The same type of summaries are provided for the HABD2 peptides in Tables 17 and 18 below, and for the HABD1+HABD2 peptides in Tables 19 and 20 below.
Function blocking scores were calculated as the total percent inhibition achieved by the peptide for all assays the peptides were tested in, divided by the number of assays. Assays included migration, invasion, inflammation and fibrosis assays. Not all peptides were tested all of the assays. All peptides were included for deriving R^2 values (Pearson's formula).

[5] = Circular dichroism (CD) spectroscopy of linear and stapled peptides in water or 40% TFE/water (Example 3); assay type: physicochemical; conditions: for [0]208 mean residue ellipticity: λ = 208 nm; for [0]222 mean residue ellipticity: λ = 222 nm
Description: CD spectra were obtained on a Jasco J-810 spectropolarimeter and recorded in the range of 180-260 nm. Peptide solutions were prepared with a 0.1M phosphate buffer solution to a concentration of 0.5 mM. The measurements were performed in quartz cuvettes with a path length of 1 mm and a scanning speed of 10-50 nm/min. Five individual data points were averaged by the instrument in order to obtain the reported CD spectrum. The measurements were carried out at 20° C. A blank solution of 0.1M phosphate buffer solution was run before every measurement in order to baseline correct for any UV-interference observed from the buffer.
CD data for the 14- and 15-mer peptides containing HABD2 (VSKLRSQLVKRKQN, SEQ ID NO: 2) and HABD1 (NLKQKIKHVVKLKDE, SEQ ID NO: 4) and cyclized derivatives thereof in water or 40% TFE/water are provided below in Tables 8 (water) and 9 (40% TFE/water). Tables 8 and 9 provide the mean residue ellipicity ([θ] deg cm^2 dmol^−1) at λ=222 and 208 nm for each peptide and ratios of ellipticities at 222/208. Each of the peptides was acetylated at its amino terminus and amidated at its carboxy terminus.
CD data for linear peptides having the sequences […] (SEQ ID NO: 5) and […] (SEQ ID NO: 6) and cyclized derivatives thereof in water or 40% TFE/water are provided below in Tables 12 (water) and 13 (40% TFE/water). Tables 12 and 13 provide the mean residue ellipicity ([0] deg cm^2 dmol^−1) at λ=222 and 208 nm for each peptide and ratios of ellipticities at 222/208. Each of the peptides was acetylated at its amino terminus and amidated at its carboxy terminus.
Circular Dichroism (CD) spectroscopy is a tool that is used to study the secondary structure characteristics of a compound. Peptides and proteins can fold into organized structures, such as alpha helices and beta sheets, which are the result of complex hydrogen bonding and other interactions between amino acid side chains, as well as adopt a random coil formation, which lacks much of the organization of the other two structures. The CD spectrum of an alpha helix is characterized by two local minima at 208 nm and 222 nm. The ratio of the values of the molar ellipticities at these wavelengths ([θ]222/[θ]208) is a strong indication of the relative helicity of a compound; a compound is more helical when the ratio of these two values approaches 1.0. Synthetic constraints introduced to the peptide backbone can force a peptide chain to increase its helical character. These constraints can be introduced by staples, of varying types, which allow cyclization of the peptide backbone to take place.

[6] = as repeated in tables 16, 18, 20

## CC[C@H](C)[C@@H]1NC(=O)[C@H](CCCCN)NC(=O)[C@@H](NC(=O)[C@H](CCCCN)NC(=O)[C@H](CC(C)C)NC(=O)[C@H](CC(N)=O)NC(C)=O)CCC(=O)NCCCC[C@@H](C(=O)N[C@H](C(=O)N[C@H](C(=O)N[C@@H](CCCCN)C(=O)N[C@@H](CC(C)C)C(=O)N[C@@H](CCCCN)C(=O)N[C@@H](CC(=O)O)C(=O)N[C@@H](CCC(=O)O)C(N)=O)C(C)C)C(C)C)NC(=O)[C@H](CCCCN)NC1=O (Ac-NLKEKIKKVVKLKDE-NH2; lactam 4-8)
Circular dichroism
  helicity: -2460 MRE222

## CC[C@H](C)[C@@H]1NC(=O)[C@@H](NC(=O)[C@H](CCC(N)=O)NC(=O)[C@H](CCCCN)NC(=O)[C@H](CC(C)C)NC(=O)[C@H](CC(N)=O)NC(C)=O)CCC(=O)NCCCC[C@@H](C(=O)N[C@H](C(=O)N[C@@H](CCCCN)C(=O)N[C@@H](CC(C)C)C(=O)N[C@@H](CCCCN)C(=O)N[C@@H](CC(=O)O)C(=O)N[C@@H](CCC(=O)O)C(N)=O)C(C)C)NC(=O)[C@H](Cc2c[nH]cn2)NC(=O)[C@H](CCCCN)NC1=O (Ac-NLKQEIKHKVKLKDE-NH2; lactam 5-9)
Circular dichroism
  helicity: -2830 MRE222

## CC(=O)N[C@@H](CC(N)=O)C(=O)N[C@@H](CC(C)C)C(=O)N[C@@H](CCCCN)C(=O)N[C@@H](CCC(N)=O)C(=O)N[C@@H](CCCCN)C(=O)N[C@H]1CCC(=O)NCCCC[C@@H](C(=O)N[C@@H](CCCCN)C(=O)N[C@@H](CC(C)C)C(=O)N[C@@H](CCCCN)C(=O)N[C@@H](CC(=O)O)C(=O)N[C@@H](CCC(=O)O)C(N)=O)NC(=O)[C@H](C(C)C)NC(=O)[C@H](Cc2c[nH]cn2)NC(=O)[C@H](CCCCN)NC1=O (Ac-NLKQKEKHVKKLKDE-NH2; lactam 6-10)
Circular dichroism
  helicity: -2610 MRE222

## CC[C@H](C)[C@H](NC(=O)[C@H](CCCCN)NC(=O)[C@H](CCC(N)=O)NC(=O)[C@H](CCCCN)NC(=O)[C@H](CC(C)C)NC(=O)[C@H](CC(N)=O)NC(C)=O)C(=O)N[C@H]1CCC(=O)NCCCC[C@@H](C(=O)N[C@@H](CC(C)C)C(=O)N[C@@H](CCCCN)C(=O)N[C@@H](CC(=O)O)C(=O)N[C@@H](CCC(=O)O)C(N)=O)NC(=O)[C@H](C(C)C)NC(=O)[C@H](C(C)C)NC(=O)[C@H](Cc2c[nH]cn2)NC1=O (Ac-NLKQKIEHVVKLKDE-NH2; lactam 7-11)
Circular dichroism
  helicity: -3850 MRE222

## CC[C@H](C)[C@H](NC(=O)[C@H](CCCCN)NC(=O)[C@H](CCC(N)=O)NC(=O)[C@H](CCCCN)NC(=O)[C@H](CC(C)C)NC(=O)[C@H](CC(N)=O)NC(C)=O)C(=O)N[C@@H](CCCCN)C(=O)N[C@H]1CCC(=O)NCCCC[C@@H](C(=O)N[C@@H](CCCCN)C(=O)N[C@@H](CC(=O)O)C(=O)N[C@@H](CCC(=O)O)C(N)=O)NC(=O)[C@H](CCCCN)NC(=O)[C@H](C(C)C)NC(=O)[C@H](C(C)C)NC1=O (Ac-NLKQKIKEVVKKKDE-NH2; lactam 8-12)
Circular dichroism
  helicity: -1800 MRE222

## CC(=O)N[C@H](C(=O)N[C@@H](CO)C(=O)N[C@@H](CCCCN)C(=O)N[C@H]1CCC(=O)NCCCC[C@@H](C(=O)N[C@H](C(=O)N[C@@H](CCCCN)C(=O)N[C@@H](CCCNC(=N)N)C(=O)N[C@@H](CCCCN)C(=O)N[C@@H](CCC(N)=O)C(=O)N[C@@H](CC(N)=O)C(N)=O)C(C)C)NC(=O)[C@H](CCC(N)=O)NC(=O)[C@H](CO)NC(=O)[C@H](CCCNC(=N)N)NC1=O)C(C)C (Ac-VSKERSQKVKRKQN-NH2; lactam 4-8)
Circular dichroism
  helicity: -3350 MRE222

## Ac-NLKQKIKHVVKLKDE-NH2 [Compound 156]
[1]; [6]
  HA binding: 0.01
[1]; optical density, summary tables 15, 17, 19
  HA direct binding (OD): 0.01 OD
[2]
  Migration (% inhib.): 0 % inhib.
[3]
  Invasion (% inhib.): 0 % inhib.
[4]
  Function blocking score (FBS): 0
[5]; [θ]222/[θ]208 ratio in water, summary tables 15, 17, 19
  [θ]222/[θ]208 ratio of ellipticities: 0.11
[5]; [6]
  [θ]222/[θ]208 ratio of ellipticities: 0.11
[5]; in 40% TFE/water
  [0]222/[0]208 ratio of ellipticities: 0.74
  [0]208 mean residue ellipticity: -1.03E+04 deg cm^2 dmol^−1
  [0]222 mean residue ellipticity: -8.57E+03 deg cm^2 dmol^−1
[5]; in water
  [0]222/[0]208 ratio of ellipticities: 0.11
  alpha-helical character by CD (in words): nominal alpha helical character in water
  [0]208 mean residue ellipticity: -9.00E+02 deg cm^2 dmol^−1
  [0]222 mean residue ellipticity: -1.01E+02 deg cm^2 dmol^−1
